According to patent publication US11130801B2, “Method for inhibiting platelet derived growth factor signaling with C3aR or C5aR antibodies” (CASE WESTERN RESERVE UNIVERSITY, priority 2011, dated 2021):

Legend:
HUVEC [1] = assay: Cell cycle assay of serum starved HUVEC; assay type: cell-based; settings: identical to adding VEGF-A
Protocol: (§1) Propidium iodide staining was performed as described previously […]. In brief, the cells were serum starved for 24 hrs followed by administration of 1 μM colchicine (Sigma). 16 hrs following colchicine treatment, cells were given either growth factor treatment or 17 ng/mL mC5a. After an additional 24 hrs, cells were removed from plating via Trypsin/EDTA and fixed in 0.25% Formaldehyde for 10 mins at 37° C. Cells were spun out of formaldehyde solution and resuspended in 90% methanol at 4° C. until assayed. Following removal from methanol, excess RNA was removed via treatment with RNase (Sigma) and stained with propidium iodide for 30 mins at 4° C. Cells were analyzed on an Epics XL.
Because the disruptive effect of C3aR/C5aR antagonism on VEGF growth induction could be a consequence of the requirement of autocrine C3aR/C5aR signaling for EC viability, we performed cell cycle assays. […] These findings that autocrine C3aR/C5aR signaling not only prevents EC apoptosis but drives EC growth point to a bidirectional signaling mechanism wherein C3aR/C5aR GPCR signaling transactivates to VEGFR2 signaling and vice versa.

VEGFR2 = VEGFR2 phosphorylation immunoblot in serum starved primary WT aortic ECs; assay type: cell-based, murine; settings: added C5a, relative to untreated controls
Protocol: FIG. 21 illustrates an immunoblot of VEGFR2 phosphorylation. C5a or VEGF-A was added to serum starved primary cultures of WT murine ECs in the absence or presence of C3aR-A/C5aR-A and VEGFR2 phosphorylation assessed by immunoblotting with anti […] mAb.
To directly establish whether C3aR/C5aR signaling is integral to VEGF signaling, we next evaluated phosphorylation of VEGFR2. We tested 1) how adding C5a to primary WT ECs affects VEGFR2 autophosphorylation and 2) whether VEGFR2 phosphorylation induced by added VEGF-A is affected by antagonizing C3aR/C5aR signaling. We incubated serum starved WT aortic ECs with C5a or with VEGF-A in the absence or presence of C3aR-A/C5aR-A, after which we probed immunoblots of protein lysates and anti-pVEGFR2^Y1054/1059 mAb or pan VEGFR2 antibody.

C5aR = assay: Proinflammatory gene transcription induced by C5aR signaling; assay type: cell-based; settings: added C5a
Source text: In view of the connections of MCP-1 and other proinflammatory cytokines with atherosclerosis and the mechanistic linkage of DAF deficiency with potentiated C3aR/C5aR transduction, we tested whether C5aR signaling induces proinflammatory gene transcription. Added C5a induced the mRNA transcription of chemotactic MCP-1/IL-8, proinflammatory IL-1β/IL-6 and growth inductive GM-CSF.

HUVEC [2] = assay: Complement mRNA transcripts in HUVEC by qPCR; assay type: cell-based; settings: added C3a or C5a
Protocol: FIG. 33 illustrates charts showing qRT-PCR analysis of C3, factor B and factor D transcripts from HUVEC under hypoxia. A) HUVEC treated with TNF-α, IL-1, and IFN-γ. Blue bars represent samples after treatment. B-C) HUVEC stimulated with C3a (10 ng/ml for 2 hr) or C5a (10 ng/ml for 30 min) Blue bars represent control without C3a/C5a stimulation while red bars represent samples after stimulation. D) HUVEC incubated for 1 hr with FCCP+IAA. Blue bars represent control without hypoxia treatment while yellow bars represent two samples after hypoxia treatment.
We next conversely assessed how transducing C3aR/C5aR signals into ECs affects endogenous EC complement production and whether it is connected with “classical” EC responses. We incubated HUVEC with 1) inflammatory cytokines, 2) the mitochondrial uncoupler protonophore carbonyl cyanide p-(trifluoromethoxy)phenylhydrazone (FCCP)+iodoacetate (IAA) (which mimics hypoxia), or 3) C3a or C5a, after which we assayed complement mRNA transcripts by qPCR. […]
ECs and leukocytes locally synthesize C3/fB/fD/C5 and the elicited C3a/C5a signal through C3aR/C5aR on the same cells to amplify this synthesis. To determine whether ECs locally synthesize AP complement components, we added IL-1/IFN-γ/TNF-α to HUVEC, 1 hr after which we quantified C3 and fB transcripts by qPCR. […]

[3] = test system: Raji, Jurkat, U937 cells, primary mΦs, B cells, and DCs; assay: AP and C5 gene transcription in leukocytes by qPCR; assay type: cell-based; settings: 10 nM C5a
Source text: ECs and leukocytes locally synthesize C3/fB/fD/C5 and the elicited C3a/C5a signal through C3aR/C5aR on the same cells to amplify this synthesis. To determine whether ECs locally synthesize AP complement components, we added IL-1/IFN-γ/TNF-α to HUVEC, 1 hr after which we quantified C3 and fB transcripts by qPCR. […] To test whether leukocytes that are recruited to sites of EC injury locally synthesize AP components and C5a similarly feeds back in them to amplify local complement production, we stimulated Raji, Jurkat, U937 cells, primary mΦs, B cells, and DCs with 10 nM C5a. This documented induction of AP and C5 gene transcription by qPCR.

NIH-3T3 cells = assay: Cell cycle assay of serum starved NIH-3T3 cells (PDGF study); assay type: cell-based; settings: identical to adding PDGF
Protocol: as §1
PDGF contributes to atherogenesis and plays a central role in neointimal proliferation following EC injury. […] Following determination of optimal PDGF-AA doses, we incubated 1×10^5 cells/well in triplicate with 30 ng/ml of PDGF-AA±10 ng/ml of C3aR and C5aR antagonists (C3aR-A/C5aR-A), 10 ng/ml of anti-C3a/anti-C5a mAbs or respective controls, after which we quantified cell growth by counting cell numbers over time. […] To directly establish whether C5aR signals augment PDGF-AA growth signaling, we 1) quantified the effect of added C5a one growth, and 2) assayed C5a in culture supernatants of PDGF-AA treated cells. […]

NIH-3T3 fibroblasts = assay: PDGF-AA growth induction of NIH-3T3 fibroblasts (cell counts over time); assay type: cell-based; settings: added C5a by itself
Protocol: PDGF contributes to atherogenesis and plays a central role in neointimal proliferation following EC injury. In view of the growth difference of primary cultured Daf1^−/−, WT, C3aR^−/−C5aR^−/−, and C3^−/−C5^−/−SMCs, we examined whether C3aR/C5aR signals are interconnected with PDGF growth induction. For these studies, we utilized NIH-3T3 fibroblasts (which express PDGFR-αα) in conjunction with PDGF-AA. Following determination of optimal PDGF-AA doses, we incubated 1×10^5 cells/well in triplicate with 30 ng/ml of PDGF-AA±10 ng/ml of C3aR and C5aR antagonists (C3aR-A/C5aR-A), 10 ng/ml of anti-C3a/anti-C5a mAbs or respective controls, after which we quantified cell growth by counting cell numbers over time. […] To directly establish whether C5aR signals augment PDGF-AA growth signaling, we 1) quantified the effect of added C5a one growth, and 2) assayed C5a in culture supernatants of PDGF-AA treated cells. […] Because the dependence of PDGF growth induction on C3aR/C5aR signaling could be indirect, i.e., a consequence of its requirement for viability, we performed cell cycle assays.

[4] = test system: NIH-3T3 cells, bEND.3 ECs, TC-1 cancer cells; assay: Cell cycle assay (propidium iodide staining) of serum starved cells; assay type: cell-based; settings: C5a added to serum starved cells; identical to EGF or VEGF-A
Protocol: Because this dependence of growth factor responsiveness on C3aR/C5aR signaling could be indirect, i.e., a consequence of its requirement for viability, we performed cell cycle assays.
as §1

B1: C5a: complement activation fragment (anaphylatoxin) added to cells (protein, UniProt P01031 678-751, looked up)
C5a anaphylatoxin: TLQKKIEEIAAKYKHSVVKKCCYDGACVNNDETCEQRAARISLGPRCIKAFTECCVVASQLRANISHKDMQLGR
modifications: C5a anaphylatoxin
Q: Which results are given for B1?
A: cell cycle transition after adding C5a (HUVEC [1]): transition from G0 into G2; VEGFR2 Y1054/1059 phosphorylation (VEGFR2): increased; mRNA transcription of MCP-1/IL-8, IL-1β/IL-6 and GM-CSF (C5aR): induced; production of AP components by ECs (HUVEC [2]): more AP components; transcription of C3 (HUVEC [2]): increased; AP and C5 gene transcription [3]: induction; cell cycle transition after adding C5a (NIH-3T3 cells): transition from G0 into G2; proliferation of NIH-3T3 cells (NIH-3T3 fibroblasts): induced proliferation; cell cycle transition after adding C5a [4]: transition from G0 into G2
